We go through 18 sequences from the supplement of paper PMC12764529.

± gives the half width of the 95% confidence interval.

The nature of series [1]: folding stability dG unfold from chymotrypsin proteolysis; higher = more stable. The method in brief: (§1)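 Bayesian fitting of sequencing counts gave K50 for each design. Unfolding free energy followed by setting this against a sequence-predicted unfolded-state K50 and a shared folded-state K50, either per protease or with trypsin and chymotrypsin combined. The designs, under 80 residues and lacking cysteine, were digested in a PA-tagged cDNA display format at 11 threefold-diluted protease concentrations and without protease, and only those with AlphaFold2 dimer inter-PAE above 15 were kept.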

Series [2] can be described thus: folding stability dG unfold from trypsin proteolysis; higher = more stable. The method in brief: as §1
Series [3] in a line: folding stability dG unfold (combined trypsin and chymotrypsin); higher = more stable. The method in brief: as §1

“SAGGSAGGSPETVTLTLTVTVKTVTLDPETGELTTTTHTVTLTLTLSKEDLEALLKSPELKKLSAGGSAGGS [r12_1015_TrROS_Hall]”: the “folding stability dG unfold” value worked out at 12.9 ± 0.28 kJ/mol in series [1], 7.7 ± 0.209 kJ/mol in series [2] and 11.5 ± 0.711 kJ/mol in series [3].

Regarding “SAGGSAGGSPGFIIRVRTWERDPKDGKWKPKRERPLTFPPDDADDFADKLNSESPNVEVEIMPSAGGSAGGS [r12_342_TrROS]”, the results for the “folding stability dG unfold” value in series [1], in series [2] and in series [3] were -1.08 ± 1.05 kJ/mol, -0.119 ± 0.628 kJ/mol and -0.334 ± 0.628 kJ/mol, respectively.

“SAGGSAGGSPGKPKTIPVEMVFFNPEDGYFFEMRSEIYVPPDGNLQIDISIELYPVPPNAPLISAGGSAGGS [r12_116_TrROS]”: the entries for the “folding stability dG unfold” value in series [1], in series [2] and in series [3] were 6.1 ± 0.163 kJ/mol, 9.75 ± 0.837 kJ/mol and 7.69 ± 0.753 kJ/mol, respectively.

For “SAGGSAGGSPIVVDSPEDIEKAIEEAIASGAKSIVEVGPNRVRVVFVIPGEPKVFVLELPLNGSAGGSAGGS [r12_368_TrMRF]”, the results for the “folding stability dG unfold” value in series [1], in series [2] and in series [3] were 8.07 ± 0.385 kJ/mol, 5.93 ± 0.213 kJ/mol and 7.5 ± 0.46 kJ/mol, respectively.

With “SAGGSAGGSPLDIEIKMEFHPDHGYWEMEIKIPGNGREINIHYQYEGGKPQITSPEQILDAIKSAGGSAGGS [r20_131_TrROS]”, the “folding stability dG unfold” value in series [1] worked out at 6.29 ± 0.343 kJ/mol; in series [2], 2.6 ± 0.502 kJ/mol; in series [3], 5.17 ± 1 kJ/mol.

On to “SAGGSAGGSPLPYLTEDGEVQVVVRIDNSTGTTTVTLTGPDGKLLKTFSVSTDGPAFVVVRAGSAGGSAGGS [r12_960_TrMRF]”, for which the entries for the “folding stability dG unfold” value in series [1], in series [2] and in series [3] were 8.02 ± 0.117 kJ/mol, 5.6 ± 0.142 kJ/mol and 7.21 ± 0.268 kJ/mol, respectively.

“SAGGSAGGSPMPVIEEVPLNPVEEKPDPSSNTLTVKYPDGTYRILTKNPDGSYSFKVLPSSSISAGGSAGGS [r12_351_JUSTAS]”: the figures for the “folding stability dG unfold” value in series [1], in series [2] and in series [3] were 6.51 ± 0.41 kJ/mol, 6.99 ± 0.142 kJ/mol and 7.17 ± 0.372 kJ/mol, respectively.

For “SAGGSAGGSPNDMKEVDFPIKFPKEKFKVKIWRHPDDPNRYYIRFPSNGAIFWFDPNGDIEPLSAGGSAGGS [r12_580_TrROS]”, the figures for the “folding stability dG unfold” value in series [1], in series [2] and in series [3] were 7.34 ± 0.356 kJ/mol, 4.24 ± 0.234 kJ/mol and 6.22 ± 0.418 kJ/mol, respectively.

As for “SAGGSAGGSPNTIEIWIQIPPGDPEKVEEIAKKLRDEGFKDIKVDEVHRNPDDSYYVEIKITVSAGGSAGGS [r12_91_TrROS]”, the “folding stability dG unfold” value in series [1] was 4.7 ± 0.105 kJ/mol; in series [2], 6.49 ± 0.502 kJ/mol; in series [3] it was 5.96 ± 0.347 kJ/mol.

Turning to “SAGGSAGGSPPMKTYEHWIRFDSPEQAVEEVANHIQDHFGLEIKSVEIEYDPENGWVRVKIVISAGGSAGGS [r12_265_TrROS]”, the “folding stability dG unfold” value amounted to 14.43 ± 0.121 kJ/mol in series [1], 11.3 ± 0.314 kJ/mol in series [2] and 13 ± 0.586 kJ/mol in series [3].

Consider “SAGGSAGGSPPPDIKVEVESYENPDGQRYYRVTITIDDGRPFDIWMPPGMSPSEAKNWLKDLLSAGGSAGGS [r12_1019_TrROS]”, for which the “folding stability dG unfold” value in series [1] came to 16.59 ± 0.146 kJ/mol; in series [2] it was 14 ± 0.335 kJ/mol; in series [3] it was 15.8 ± 0.393 kJ/mol.

Turning to “SAGGSAGGSPPPITIFTAYKDPEDGPYWMKRRKINPDNGNIEEEWYPADDLADHGLPPGDIFISAGGSAGGS [r12_123_TrROS]”, the “folding stability dG unfold” value in series [1] is 1.73 ± 1.38 kJ/mol; in series [2], -2.37 ± 3.68 kJ/mol; in series [3], 0.848 ± 0.837 kJ/mol.

Consider “SAGGSAGGSPPPRFRVVVVFEDGTRREFDLTPEELVAFAEVVPDVVVEELPPGEVRITVRLPGSAGGSAGGS [r20_231_TrMRF]”, for which the “folding stability dG unfold” value turned out to be 13 ± 0.234 kJ/mol in series [1], 10.2 ± 0.339 kJ/mol in series [2] and 12.2 ± 0.418 kJ/mol in series [3].

For “SAGGSAGGSPVLIPVKTPEEIKKFLEKASSDAKFKVFNNKGEWKEVSKNEISVTPEEQFILVYSAGGSAGGS [r12_907_TrMRF]”, the “folding stability dG unfold” value came out at 2.77 ± 0.586 kJ/mol in series [1], 1.83 ± 0.201 kJ/mol in series [2] and 2.42 ± 0.285 kJ/mol in series [3].

As to “SAGGSAGGSPVLLAESVTTLPDGTVVRTRLVRLPDGTYLRETETYPPGGAPARAVERFDDPRLASAGGSAGG [r6_299_JUSTAS]”, the entries for the “folding stability dG unfold” value in series [1], in series [2] and in series [3] were 14.66 ± 0.0962 kJ/mol, 6.93 ± 0.163 kJ/mol and 12.9 ± 0.247 kJ/mol, respectively.

“SAGGSAGGSPVPVKVEKKPTKENKELIITYYPDGKVRVTTYTYDENGNKISEKEEIIPKSEVKLSAGGSAGG [r6_579_JUSTAS]”: the figures for the “folding stability dG unfold” value in series [1], in series [2] and in series [3] were 6.6 ± 0.134 kJ/mol, 3.39 ± 0.134 kJ/mol and 5.75 ± 0.255 kJ/mol, respectively.

As to “SAGGSAGGSPVPVKVVVKLPSSDKTIELTLYPPDVSPDSVVTVDLGGPAIDVKLLPGDVLELSPSAGGSAGG [r6_461_JUSTAS]”, the “folding stability dG unfold” value in series [1] stood at 2.19 ± 0.163 kJ/mol; in series [2], 0.477 ± 0.142 kJ/mol; in series [3] it was 1.35 ± 0.406 kJ/mol.

Regarding “SAGGSAGGSPVVAIRAKSREELLAALEALLPPGQKLTPEQRQQLVDTLLANLDVKPGDTILVRSAGGSAGGS [r12_983_TrROS_Hall]”, the “folding stability dG unfold” value in series [1] amounted to 3.85 ± 0.142 kJ/mol; in series [2], 4.47 ± 0.268 kJ/mol; in series [3] it was 4.15 ± 0.502 kJ/mol.
